From PMC6704128, “Binding of the protein ICln to α-integrin contributes to the activation of ICl_(swell) current” (Scientific Reports, 2019)

T1: TcICln (truncated Canis familiaris ICln, ICln159X), N-terminal His6-tagged (Canis familiaris, UniProt P35521 1-158)
T1 construct: ICln, Canis familiaris, truncation mutant ICln159X lacking the C-terminal part (stop at position 159); pleckstrin homology domain-like fold; NCBI NP_001003288.1; Uniformly 15N-labelled; The last residue (158) is worked out from the name ICln159X; also called truncated form of cICln; source: E. coli BL21(DE3), purified (IMAC HisTrap, Superdex 75)
T1 sequence (looked up): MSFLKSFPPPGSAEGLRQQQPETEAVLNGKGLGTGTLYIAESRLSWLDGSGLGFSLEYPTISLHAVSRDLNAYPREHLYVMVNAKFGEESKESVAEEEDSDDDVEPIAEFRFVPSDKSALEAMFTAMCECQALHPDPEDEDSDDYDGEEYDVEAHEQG


How the values were obtained:
[1] = molecular target: T1, TcICln (truncated Canis familiaris …); test: NMR titration; 1H-15N HSQC of 15N-labelled ICln (0.8 mM) without and with the integrin peptide (equimolar amount for TcICln); 50 mM K2HPO4, pH 6.6, 90% H2O/10% D2O, 25 °C, 800 MHz; settings: both partners purified
[2] = molecular target: T2, αIIbs-YFP (transmembrane and intracellular portion, amino acids 987-1039, of the human integrin αIIb chain, … (human, UniProt P08514-1 987-1039)); test: FRET or BRET; acceptor photobleaching; living NIH-3T3 fibroblasts in isotonic solution; CFP donor, YFP acceptor; FRET efficiency in three plasma membrane ROIs of each cell; settings: partners not purified
T2 construct: integrin αIIb chain, human, amino acids 987-1039 (transmembrane and intracellular portion); numbers count on NCBI NP_000410.2; The methods say 'YFP was fused to the Ct of ICln'; also called αIIb-short; αIIb short; source: NIH-3T3 fibroblasts or HEK293 Phoenix cells, transiently transfected (pEYFP-N1), in cells; not shown: YFP, C-terminal, kept
T2 sequence (P08514 987-1039): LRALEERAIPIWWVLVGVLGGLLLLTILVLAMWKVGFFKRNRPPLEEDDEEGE

[3] = molecular target: T2, αIIbs-YFP (transmembrane and …); test: FRET or BRET; acceptor photobleaching; HEK293 Phoenix cells; FRET efficiency in 4-5 plasma membrane ROIs of each cell; settings: partners not purified

Binder | binding result [1] | ratio of the FRET efficiency to that of CFP and αIIbs-YFP [2] | ratio of the FRET efficiency to that of CFP and αIIbs-YFP [3]
MWKVGFFKRNR (integrin αIIb chain, human, residues 1018-1028; numbers count on NCBI NP_000410.2; also called integrin αIIb peptide with the KVGFFKR motif; source: synthetic peptide) [integrin peptide (1018)MWKVGFFKRNR(1028)] | binds |  | 
CFP-ICln (Canis familiaris ICln, wild type, CFP fused to the N-terminus) (natural protein, UniProt P35521 1-235, looked up, ICln, Canis familiaris (cDNA from the MDCK cell line), ORF of full length ICln; NCBI NP_001003288.1; The same construct was used in two cell lines (NIH-3T3 and HEK293 Phoenix); the assays tell them apart; also called CFP-ICln wt; cICln; source: NIH-3T3 fibroblasts or HEK293 Phoenix cells, transiently transfected (pECFP-C1), in cells; not shown: CFP, N-terminal, kept) MSFLKSFPPPGSAEGLRQQQPETEAVLNGKGLGTGTLYIAESRLSWLDGSGLGFSLEYPTISLHAVSRDLNAYPREHLYVMVNAKFGEESKESVAEEEDSDDDVEPIAEFRFVPSDKSALEAMFTAMCECQALHPDPEDEDSDDYDGEEYDVEAHEQGQGDIPTFYTYEEGLSHLTAEGQATLERLEGMLSQSVSSQYNMAGVRTEDSTRDYEDGMEVDTTPTVAGQFEDADVDH |  | 2.9 | 2.7
